This note sets out measurements from publication PMC5716069.

Where two headings read alike, the source gives them in different places.

The target in data set [1] is T1, Loqs-PDΔNC (Drosophila melanogaster, UniProt Q9VJY9-4 129-322).
T1 sequence: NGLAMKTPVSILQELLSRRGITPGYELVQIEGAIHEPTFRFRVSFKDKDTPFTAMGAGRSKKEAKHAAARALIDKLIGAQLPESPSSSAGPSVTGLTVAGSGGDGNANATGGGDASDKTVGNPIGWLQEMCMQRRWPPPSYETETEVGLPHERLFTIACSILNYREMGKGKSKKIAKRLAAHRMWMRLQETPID
Description: NMR titration.

Data set [2] has as its target T2, Loqs dsRBD2 (Drosophila melanogaster, UniProt Q9VJY9-4 245-322).
T2 sequence: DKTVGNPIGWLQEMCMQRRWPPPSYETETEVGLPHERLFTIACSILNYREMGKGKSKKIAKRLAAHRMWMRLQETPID
The data set is described as follows: NMR titration.

The target in data set [3] is T3, Loqs dsRBD1 (Drosophila melanogaster, UniProt Q9VJY9-4 129-211).
T3 sequence: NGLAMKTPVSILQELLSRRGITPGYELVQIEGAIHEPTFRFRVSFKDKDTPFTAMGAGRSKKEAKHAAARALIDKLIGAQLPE
The data set is described as follows: NMR titration.

The next data set concerns the target T4, Loqs-PDΔNC Δ41 (Drosophila melanogaster, UniProt Q9VJY9-4 129-322, del209-249).
T4 sequence: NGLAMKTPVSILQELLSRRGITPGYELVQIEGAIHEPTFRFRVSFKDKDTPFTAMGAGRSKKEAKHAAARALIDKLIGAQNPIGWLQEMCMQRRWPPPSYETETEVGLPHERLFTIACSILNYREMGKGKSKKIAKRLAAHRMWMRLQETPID
Description: NMR titration.

Data set [4] concerns the target T1, Loqs-PDΔNC. Description: NMR PRE.
Data set [5] has as its target T5, Dcr-2;Loqs-PD (Drosophila melanogaster;Drosophila …, UniProt A1ZAW0;Q9VJY9-4 1-1722;1-359, |). Description: 4-thioU UV cross-linking.
Data set [6] addresses T1, Loqs-PDΔNC. The data set is described as follows: NMR.
Data set [7] has as its target T1, Loqs-PDΔNC. Description: fluorescence anisotropy. A general note: Fluorescence polarisation rises when a labelled molecule tumbles more slowly, as on binding a larger partner.
The target of data set [8] is T2, Loqs dsRBD2. The data set is described as follows: fluorescence anisotropy.
Data set [9] has as its target T6, Loqs-PD (Drosophila melanogaster, UniProt Q9VJY9-4 1-359).
T6 sequence: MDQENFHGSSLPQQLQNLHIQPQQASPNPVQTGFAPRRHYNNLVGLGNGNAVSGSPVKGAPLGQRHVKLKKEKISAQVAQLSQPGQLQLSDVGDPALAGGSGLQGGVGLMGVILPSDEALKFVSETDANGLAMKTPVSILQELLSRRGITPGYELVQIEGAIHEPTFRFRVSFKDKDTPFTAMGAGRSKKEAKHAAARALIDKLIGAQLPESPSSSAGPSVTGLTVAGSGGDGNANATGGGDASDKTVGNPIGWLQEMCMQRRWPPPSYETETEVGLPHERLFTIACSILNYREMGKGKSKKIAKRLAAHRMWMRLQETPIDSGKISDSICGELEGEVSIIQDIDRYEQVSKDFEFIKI
Description: fluorescence anisotropy.

For data set [10], the target named is T3, Loqs dsRBD1. Description: fluorescence anisotropy.
For data set [11], the target named is T1, Loqs-PDΔNC. Description: fluorescence anisotropy and EMSA.
Data set [12] deals with T2, Loqs dsRBD2. The data set is described as follows: fluorescence anisotropy and EMSA.
The target of a further data set is Dcr-2 (Drosophila melanogaster, UniProt A1ZAW0 1-1722). Description: 4-thioU UV cross-linking.
Sequence of Dcr-2 (A1ZAW0 whole entry): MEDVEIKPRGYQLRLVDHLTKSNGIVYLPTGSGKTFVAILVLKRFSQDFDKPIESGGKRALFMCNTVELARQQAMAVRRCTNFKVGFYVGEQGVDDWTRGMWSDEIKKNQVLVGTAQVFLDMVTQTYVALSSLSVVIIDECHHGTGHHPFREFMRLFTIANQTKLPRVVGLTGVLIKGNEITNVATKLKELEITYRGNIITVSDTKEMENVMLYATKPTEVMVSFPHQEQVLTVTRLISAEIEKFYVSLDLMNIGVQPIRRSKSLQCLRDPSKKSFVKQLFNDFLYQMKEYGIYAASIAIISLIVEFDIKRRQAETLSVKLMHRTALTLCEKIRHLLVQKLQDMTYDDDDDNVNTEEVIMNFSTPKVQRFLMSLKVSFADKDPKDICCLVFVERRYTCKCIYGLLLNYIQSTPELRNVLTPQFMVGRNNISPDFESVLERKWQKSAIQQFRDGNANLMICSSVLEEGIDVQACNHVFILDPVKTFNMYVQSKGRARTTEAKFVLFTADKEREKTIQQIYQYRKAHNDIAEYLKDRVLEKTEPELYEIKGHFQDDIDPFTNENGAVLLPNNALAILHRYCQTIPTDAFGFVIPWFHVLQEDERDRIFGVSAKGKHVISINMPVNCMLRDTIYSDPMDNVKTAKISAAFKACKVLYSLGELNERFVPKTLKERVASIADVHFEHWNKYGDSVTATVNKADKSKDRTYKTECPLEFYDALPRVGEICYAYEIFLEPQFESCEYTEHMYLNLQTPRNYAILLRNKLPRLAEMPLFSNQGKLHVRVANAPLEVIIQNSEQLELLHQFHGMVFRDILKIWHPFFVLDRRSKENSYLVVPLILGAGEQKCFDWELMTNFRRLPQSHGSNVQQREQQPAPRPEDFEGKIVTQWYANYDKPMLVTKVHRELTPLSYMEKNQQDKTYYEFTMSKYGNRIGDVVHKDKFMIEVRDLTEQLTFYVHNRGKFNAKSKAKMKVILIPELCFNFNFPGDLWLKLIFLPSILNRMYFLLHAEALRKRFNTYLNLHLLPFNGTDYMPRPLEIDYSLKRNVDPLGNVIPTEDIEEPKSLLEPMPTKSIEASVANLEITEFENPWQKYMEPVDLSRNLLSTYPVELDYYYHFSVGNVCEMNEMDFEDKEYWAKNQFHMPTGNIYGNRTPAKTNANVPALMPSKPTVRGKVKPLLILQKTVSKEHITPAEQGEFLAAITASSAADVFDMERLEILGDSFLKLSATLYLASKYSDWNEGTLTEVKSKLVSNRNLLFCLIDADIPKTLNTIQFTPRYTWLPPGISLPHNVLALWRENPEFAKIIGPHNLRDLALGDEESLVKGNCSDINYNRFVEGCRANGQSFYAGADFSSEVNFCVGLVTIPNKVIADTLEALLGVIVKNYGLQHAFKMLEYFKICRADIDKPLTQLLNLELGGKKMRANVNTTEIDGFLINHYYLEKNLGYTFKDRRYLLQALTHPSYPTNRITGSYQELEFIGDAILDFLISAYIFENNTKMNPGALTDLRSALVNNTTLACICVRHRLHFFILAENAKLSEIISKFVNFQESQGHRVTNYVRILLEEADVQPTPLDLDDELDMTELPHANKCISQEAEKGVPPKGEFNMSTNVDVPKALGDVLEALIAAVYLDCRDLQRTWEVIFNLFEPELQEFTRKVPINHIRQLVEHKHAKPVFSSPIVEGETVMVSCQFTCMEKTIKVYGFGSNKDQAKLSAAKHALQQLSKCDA
Data set [13] deals with T2, Loqs dsRBD2. Description: 4-thioU UV cross-linking.
Data set [14] addresses T3, Loqs dsRBD1. The data set is described as follows: 4-thioU UV cross-linking.
The target in data set [15] is T1, Loqs-PDΔNC. The data set is described as follows: 4-thioU UV cross-linking.
The target in data set [16] is T6, Loqs-PD. Description: 4-thioU UV cross-linking.
Data set [17] deals with T5, Dcr-2;Loqs-PD. Description: 4-thioU UV cross-linking. This is another data set of the same source.
Data set [18] deals with T1, Loqs-PDΔNC. Description: NMR PRE. This is another data set of the same source.

T5 sequence (A1ZAW0 whole entry, one chain of several): as the sequence (A1ZAW0 whole entry) above

B1: ban-siRNA, unlabeled (dsRNA)
RNA 1: UCAGCUUUCAAAAUGAUCUCACU
RNA 2: UGAGAUCAUUUUGAAAGCUGAUU
With B1, the binding result in the data set with Loqs-PDΔNC [1], in the data set with Loqs dsRBD2 [2], with Loqs dsRBD1 [3] and in the data set with Loqs-PDΔNC Δ41 was “binds” throughout.

B2: ban-siRNA GG variant, TEMPO (dsRNA)
RNA 1: GGAGCUUUCAAAAUGAUCUCCUU
RNA 2: GGAGAUCAUUUUGAAAGCUCCUU
modifications: TEMPO at either 5' end (G1 or G24)
As to B2, the binding result in the data set with Loqs-PDΔNC [4] is “binds”.

B3: nicked siRNA, passenger nicked, 4-thioU (dsRNA)
RNA 1: UGAGAUCAUUUUGAAAGCUGAUU
RNA 2: UCAGCUUUCAA
RNA 3: AAUGAUCUCACU
modifications: nick 11/12; 4-thiouridine in intact strand
As to B3, in the data set with Dcr-2;Loqs-PD [5], the binding result is reported as “binds”.

B4: ban-siRNA GG variant, isotope-labeled (dsRNA)
RNA 1: GGAGCUUUCAAAAUGAUCUCCUU
RNA 2: GGAGAUCAUUUUGAAAGCUCCUU
As to B4, in the data set with Loqs-PDΔNC [6], the binding result is “binds”.

B5: 14 nt RNA, FITC (dsRNA)
RNA 1: UGAGAUCAUUUUGA
RNA 2: UCAAAAUGAUCUCAUU
modifications: 5'-phosphate
B5: the Kd in the data set with Loqs-PDΔNC [7] was found to be 128 ± 41 nM; in the data set with Loqs dsRBD2 [8], 334 ± 8 nM; in the data set with Loqs-PD [9], 118 ± 15 nM; in the data set with Loqs dsRBD1 [10], 365 ± 62 nM.

B6: ban-siRNA, FITC (dsRNA)
RNA 1: UGAGAUCAUUUUGAAAGCUGAUU
RNA 2: UCAGCUUUCAAAAUGAUCUCACU
modifications: 5'-phosphate
For B6, the Kd in the data set with Loqs-PDΔNC [7] came out at 82 ± 21 nM; with Loqs dsRBD2 [8] it was 278 ± 24 nM; with Loqs-PD [9] it was 50 ± 6 nM; with Loqs dsRBD1 [10], 228 ± 27 nM.

B7: nicked siRNA, FITC (dsRNA)
RNA 1: UGAGAUCAUUUUGAAAGCUGAUU
RNA 2: UCAGCUUUCAA
RNA 3: AAUGAUCUCACU
modifications: nick between 11 and 12 of S1 strand; 5'-phosphate
Consider B7, for which the binding result with Loqs-PDΔNC [11] and in the data set with Loqs dsRBD2 [12] was “binds” in each case.

B8: 35 nt dsRNA, FITC (dsRNA)
RNA 1: GAUUCAUACAAGUGAGAUCAUUUUGAAAGCUGAUU
RNA 2: UCAGCUUUCAAAAUGAUCUCACUUGUAUGAAUCAA
modifications: 5'-phosphate
Take B8: the Kd with Loqs-PDΔNC [7] amounted to 86 ± 18 nM; with Loqs dsRBD2 [8], 229 ± 48 nM; in the data set with Loqs-PD [9], 62 ± 5 nM; with Loqs dsRBD1 [10], 191 ± 29 nM.

B9: ban-siRNA, 4-thioU series (dsRNA)
RNA 1: UCAGCUUUCAAAAUGAUCUCACU
RNA 2: UGAGAUCAUUUUGAAAGCUGAUU
modifications: one 4-thiouridine per duplex, position varied; 5'-phosphate
On to B9, for which the binding result with Dcr-2, in the data set with Loqs dsRBD2 [13], in the data set with Loqs dsRBD1 [14], in the data set with Loqs-PDΔNC [15], in the data set with Loqs-PD [16] and in the data set with Dcr-2;Loqs-PD [17] was “binds” in each case.

B10: highly asymmetric siRNA, TEMPO (dsRNA)
RNA 1: GUAACUUUCAAAAUGAGCGCCUU
RNA 2: GGCGCUCAUUUUGAAAGUUACUU
modifications: TEMPO at either 5' end
For B10, the binding result in the data set with Loqs-PDΔNC [18] is “binds”.

B11: bantam miRNA/miRNA*, FITC (dsRNA)
RNA 1: UGAGAUCAUUUUGAAAGCUGAUU
RNA 2: UCGGUUUUCGAUUUGGUUUGACU
modifications: 5'-phosphate
On to B11, for which the Kd with Loqs-PDΔNC [7] was found to be 97 ± 21 nM; with Loqs dsRBD2 [8], 241 ± 75 nM; in the data set with Loqs-PD [9], 118 ± 17 nM; with Loqs dsRBD1 [10], 233 ± 17 nM.

As usually defined, the Kd is the concentration at which binding is half-saturated. Low readings indicate a tighter complex, high ones a looser complex.
